Results reported in paper PMC2894786, “Fibronectin-binding protein B variation in Staphylococcus aureus” (BMC Microbiology, 2010).

B1: recombinant FnBPB N23 isotype I (residues 162-480) from S. aureus strain 8325-4 (domain or fragment)
chain: TGTDVTNKVEVEEGSEIVGHKQDTNVVNPHNAERVTLKYKWKFGEGIKAGDYFDFTLSDNVETHGISTLRKVPEIKSTDGQVMATGEIIGERKVRYTFKEYVQEKKDLTAELSLNLFIDPTTVTQKGNQNVEVKLGETTVSKIFNIQYLGGVRDNWGVTANGRIDTLNKVDGKFSHFAYMKPNNQSLSSVTVTGQVTKGNKPGVNNPTVKVYKHIGSDDLAESVYAKLDDVSKFEDVTDNMSLDFDTNGGYSLNFNNLDQSKNYVIKYEGYYDSNASNLEFQTHLFGYYNYYYTSNLTWKNGVAFYSNNAQGDGKDKLK
notes: cloned BamHI/SmaI into pQE30 with a 3' stop codon; also called rN23 isotype I; rN23 type I; source: E. coli TOPP 3, pQE30, purified (Ni2+ chelate chromatography); not shown: His6, N-terminal, kept

Legend:
[1] = biological target: human fibronectin (human); test: ELISA; solid-phase binding: elastin (50 μg/ml), fibrinogen (10 μg/ml) or fibronectin (10 μg/ml) coated on microtitre wells; purified rFnBPB N23 in PBS added, 37°C for 2 hr; bound protein detected with anti-hexahistidine monoclonal antibody 7E8
[2] = biological target: human fibronectin (human); test: SPR; BIAcore X100; fibrinogen, elastin or fibronectin amine-coupled to CM5 chips; rN23 type I passed over at 0.15 μM to 10 μM in PBS; blank flow cell subtracted; equilibrium dissociation constants
[3] = biological target: human aortic elastin (human) (UniProt P15502); test: ELISA; solid-phase binding: elastin (50 μg/ml), fibrinogen (10 μg/ml) or fibronectin (10 μg/ml) coated on microtitre wells; purified rFnBPB N23 in PBS added, 37°C for 2 hr; bound protein detected with anti-hexahistidine monoclonal antibody 7E8
human fibrinogen (human) = human fibrinogen (human) (UniProt P02671); test: as above
human aortic elastin [4] = biological target: T1, human aortic elastin (human, UniProt P15502 27-786); test: SPR; BIAcore X100; fibrinogen, elastin or fibronectin amine-coupled to CM5 chips; rN23 type I passed over at 0.15 μM to 10 μM in PBS; blank flow cell subtracted; equilibrium dissociation constants; settings: both partners purified
T1 construct: elastin from human aorta; Tissue elastin is a cross-linked material; The vendor named for the ELISA differs from that named for the SPR; source: bought: Elastin Products Company (ELISA); Enzyme Research Laboratories (SPR)
T1 sequence: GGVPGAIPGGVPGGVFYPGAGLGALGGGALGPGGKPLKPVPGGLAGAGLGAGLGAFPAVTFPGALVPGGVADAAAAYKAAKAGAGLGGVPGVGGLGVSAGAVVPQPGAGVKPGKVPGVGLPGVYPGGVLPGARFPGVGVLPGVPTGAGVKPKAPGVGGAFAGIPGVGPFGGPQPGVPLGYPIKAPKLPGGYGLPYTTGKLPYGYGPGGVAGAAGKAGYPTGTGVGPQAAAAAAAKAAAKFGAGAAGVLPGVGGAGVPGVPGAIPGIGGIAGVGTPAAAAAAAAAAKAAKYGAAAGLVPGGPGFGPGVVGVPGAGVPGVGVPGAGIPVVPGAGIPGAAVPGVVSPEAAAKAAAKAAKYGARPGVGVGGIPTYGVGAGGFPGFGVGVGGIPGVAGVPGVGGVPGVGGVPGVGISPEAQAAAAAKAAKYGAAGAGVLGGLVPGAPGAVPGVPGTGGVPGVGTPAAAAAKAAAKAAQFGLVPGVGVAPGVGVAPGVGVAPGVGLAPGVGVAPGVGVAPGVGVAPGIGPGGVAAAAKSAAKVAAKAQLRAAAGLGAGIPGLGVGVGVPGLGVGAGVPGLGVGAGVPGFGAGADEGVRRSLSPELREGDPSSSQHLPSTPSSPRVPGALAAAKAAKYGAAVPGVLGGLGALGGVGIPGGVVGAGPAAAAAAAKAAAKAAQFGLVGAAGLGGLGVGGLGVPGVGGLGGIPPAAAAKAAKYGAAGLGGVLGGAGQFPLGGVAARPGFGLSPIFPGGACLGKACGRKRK

human fibrinogen [5] = biological target: T2, human fibrinogen (human, UniProt P02671-2 20-644; P02675 31-491; P02679-2 27-437); test: as above; settings: both partners purified
T2 construct: fibrinogen alpha chain, human; fibrinogen beta chain, human; fibrinogen gamma chain, human; source: bought: Calbiochem; copies: + +
T2 sequence 1: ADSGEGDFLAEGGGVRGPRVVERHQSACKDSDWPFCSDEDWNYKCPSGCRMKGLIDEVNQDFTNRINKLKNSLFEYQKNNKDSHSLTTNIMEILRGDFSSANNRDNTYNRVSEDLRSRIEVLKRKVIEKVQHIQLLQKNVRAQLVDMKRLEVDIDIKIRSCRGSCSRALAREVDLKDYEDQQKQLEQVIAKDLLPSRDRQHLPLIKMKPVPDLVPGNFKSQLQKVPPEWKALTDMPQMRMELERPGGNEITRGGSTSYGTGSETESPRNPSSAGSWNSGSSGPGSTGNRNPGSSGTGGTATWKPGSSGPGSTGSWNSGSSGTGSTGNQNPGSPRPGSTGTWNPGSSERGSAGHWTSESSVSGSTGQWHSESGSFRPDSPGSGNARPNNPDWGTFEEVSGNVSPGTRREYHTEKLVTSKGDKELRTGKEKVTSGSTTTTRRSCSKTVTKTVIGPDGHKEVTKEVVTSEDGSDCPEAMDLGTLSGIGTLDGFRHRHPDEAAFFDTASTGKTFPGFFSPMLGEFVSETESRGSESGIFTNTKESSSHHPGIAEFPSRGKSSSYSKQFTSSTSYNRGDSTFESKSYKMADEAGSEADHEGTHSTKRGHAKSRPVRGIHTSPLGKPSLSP
T2 sequence 2: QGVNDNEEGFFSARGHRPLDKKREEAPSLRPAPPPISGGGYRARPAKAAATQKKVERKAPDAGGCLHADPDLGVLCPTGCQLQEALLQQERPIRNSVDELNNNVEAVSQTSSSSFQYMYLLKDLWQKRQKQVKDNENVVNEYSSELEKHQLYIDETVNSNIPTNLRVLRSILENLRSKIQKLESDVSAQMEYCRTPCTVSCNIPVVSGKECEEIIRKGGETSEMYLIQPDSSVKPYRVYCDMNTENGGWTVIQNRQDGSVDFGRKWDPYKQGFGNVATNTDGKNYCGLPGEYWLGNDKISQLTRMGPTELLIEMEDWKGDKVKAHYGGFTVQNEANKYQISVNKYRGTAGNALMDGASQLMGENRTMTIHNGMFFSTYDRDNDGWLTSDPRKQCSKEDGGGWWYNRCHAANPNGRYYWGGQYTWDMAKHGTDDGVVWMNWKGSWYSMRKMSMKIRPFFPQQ
T2 sequence 3: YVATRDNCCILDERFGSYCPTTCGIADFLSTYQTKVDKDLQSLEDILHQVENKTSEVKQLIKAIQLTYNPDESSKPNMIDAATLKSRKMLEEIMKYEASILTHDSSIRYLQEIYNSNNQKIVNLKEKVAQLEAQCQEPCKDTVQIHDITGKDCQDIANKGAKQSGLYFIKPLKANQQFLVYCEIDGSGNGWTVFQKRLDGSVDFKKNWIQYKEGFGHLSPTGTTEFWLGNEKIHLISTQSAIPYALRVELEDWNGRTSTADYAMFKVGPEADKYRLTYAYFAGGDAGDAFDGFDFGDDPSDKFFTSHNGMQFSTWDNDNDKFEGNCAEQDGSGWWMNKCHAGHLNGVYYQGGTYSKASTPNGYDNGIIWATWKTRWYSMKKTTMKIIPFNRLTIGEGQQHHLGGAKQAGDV

human aortic elastin [6] = biological target: T1, human aortic elastin; test: ELISA; solid-phase binding: elastin (50 μg/ml), fibrinogen (10 μg/ml) or fibronectin (10 μg/ml) coated on microtitre wells; purified rFnBPB N23 in PBS added, 37°C for 2 hr; bound protein detected with anti-hexahistidine monoclonal antibody 7E8; settings: both partners purified
human fibrinogen [7] = biological target: T2, human fibrinogen; test: as above; settings: both partners purified

Row | Molecule | EC50 [1] | Kd [2] | EC50 [3] | EC50 (human fibrinogen (human)) | Kd (human aortic elastin [4]) | Kd (human fibrinogen [5]) | EC50 (human aortic elastin [6]) | EC50 (human fibrinogen [7])
1 | recombinant FnBPB N23 isotype I (residues 162-480) from S. aureus strain 8325-4 (from UniProt A0A0H2XKG3 162-480) (domain or fragment) | 1500 nM | 2500 nM |  |  |  |  |  | 
2 | recombinant FnBPB N23 isotype II from S. aureus strain N315 (domain or fragment) | 1500 nM |  | 900 nM | 500 nM |  |  |  | 
3 | recombinant FnBPB N23 isotype III from S. aureus strain MSSA476 (domain or fragment) | 1500 nM |  | 900 nM | 500 nM |  |  |  | 
4 | recombinant FnBPB N23 isotype IV from S. aureus strain P1 (domain or fragment) | 1500 nM |  | 900 nM | 500 nM |  |  |  | 
5 | recombinant FnBPB N23 isotype V from S. aureus strain 2 (domain or fragment) | 1500 nM |  | 900 nM | 500 nM |  |  |  | 
6 | recombinant FnBPB N23 isotype VI from S. aureus strain 3077 (domain or fragment) | 1500 nM |  | 900 nM | 500 nM |  |  |  | 
7 | recombinant FnBPB N23 isotype VII from S. aureus strain 233 (domain or fragment) | 1500 nM |  | 900 nM | 500 nM |  |  |  | 
8 | B1 |  |  |  |  | 3200 nM | 2000 nM | ~900 nM | ~500 nM
